Positions of bridges follow the written chain, without caps; N, C: chain ends. Non-standard residues stand in square brackets, D forms with d. R8 = C=CCCCCCC[C@@](C)(N)C(=O)O; S5 = C=CCCC[C@](C)(N)C(=O)O; Aib = CC(C)(N)C(=O)O
Assays:
[1] = target: MCL-1 (UniProt Q07820); test: Ki (Table 8); method not stated
[2] = target: BCL-XL (UniProt Q07817); test: Ki (Table 8); method not stated
[3] = target: BCL-2 (UniProt P10415); test: Ki (Table 8); method not stated
[4] = target: T1, BCL-XL (UniProt Q07817 1-209); test: inhibitory constant assay (Table 7); method not stated
T1 construct: Target of the Ki columns
T1 sequence (Q07817 1-209): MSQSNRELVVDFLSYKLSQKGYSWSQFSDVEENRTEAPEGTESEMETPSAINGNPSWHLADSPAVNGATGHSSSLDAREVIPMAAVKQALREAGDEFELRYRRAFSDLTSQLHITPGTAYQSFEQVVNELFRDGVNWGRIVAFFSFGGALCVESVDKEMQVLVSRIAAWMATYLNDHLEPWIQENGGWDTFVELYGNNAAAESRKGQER

[5] = target: T2, BCL-2 (UniProt P10415 1-217, limits assumed); test: as above
T2 construct: Target of the Ki columns
T2 sequence (P10415 1-217 limits assumed): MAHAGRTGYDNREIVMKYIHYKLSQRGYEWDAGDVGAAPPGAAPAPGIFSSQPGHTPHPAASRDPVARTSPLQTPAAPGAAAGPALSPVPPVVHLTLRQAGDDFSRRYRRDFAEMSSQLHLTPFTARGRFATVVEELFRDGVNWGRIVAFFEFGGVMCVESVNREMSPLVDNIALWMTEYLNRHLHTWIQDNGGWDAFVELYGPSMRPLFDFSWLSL

[6] = target: T3, MCL-1 (UniProt Q07820 172-327, limits assumed); test: as above
T3 construct: Target of the Ki columns; also called Myeloid cell leukemia 1
T3 sequence (Q07820 172-327 limits assumed): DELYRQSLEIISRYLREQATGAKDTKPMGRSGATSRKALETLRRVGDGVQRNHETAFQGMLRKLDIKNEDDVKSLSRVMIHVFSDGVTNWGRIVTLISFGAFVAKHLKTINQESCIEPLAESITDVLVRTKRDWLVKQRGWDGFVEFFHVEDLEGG

[7] = target: T1, BCL-XL; test: Ki (Table 8); method not stated
[8] = target: T2, BCL-2; test: Ki (Table 8); method not stated
[9] = target: T3, MCL-1; test: Ki (Table 8); method not stated

MCL-1 (UniProt Q07820), sequence (Q07820 172-327 limits assumed): as above
BCL-XL (UniProt Q07817), sequence (Q07817 1-209): as the sequence (Q07817 1-209) above
BCL-2 (UniProt P10415), sequence (P10415 1-217 limits assumed): as the sequence (P10415 1-217 limits assumed) above

| Ki [1] [nM] | Ki [2] [nM] | Ki [3] [nM] | Ki [4] [nM] | Ki [5] [nM] | Ki [6] [nM] | Ki [7] [nM] | Ki [8] [nM] | Ki [9] [nM] | Molecule |
| --- | --- | --- | --- | --- | --- | --- | --- | --- | --- |
| 2.7 | 6.2 | 29.6 | – | – | – | – | – | – | BIM-SAHBA1 (peptide) |
| – | – | – | 178 | 151 | 11 | 114 | 215 | 17 | Ac-RWIAQALR[S5]IGD[S5]LN[Aib]FYAHH-NH2 (staple 9-13; SMILES CC[C@H](C)[C@H](NC(=O)[C@H](Cc1c[nH]c2ccccc12)NC(=O)[C@H](CCCNC(=N)N)NC(C)=O)C(=O)N[C@@H](C)C(=O)N[C@@H](CCC(N)=O)C(=O)N[C@@H](C)C(=O)N[C@@H](CC(C)C)C(=O)N[C@@H](CCCNC(=N)N)C(=O)N[C@@]1(C)CCCC=CCCC[C@@](C)(C(=O)N[C@@H](CC(C)C)C(=O)N[C@@H](CC(N)=O)C(=O)NC(C)(C)C(=O)N[C@@H](Cc2ccccc2)C(=O)N[C@@H](Cc2ccc(O)cc2)C(=O)N[C@@H](C)C(=O)N[C@@H](Cc2c[nH]cn2)C(=O)N[C@@H](Cc2c[nH]cn2)C(N)=O)NC(=O)[C@H](CC(=O)O)NC(=O)CNC(=O)[C@H]([C@@H](C)CC)NC1=O) [Cross-linked peptide #14] |
| – | – | – | – | – | – | 5.2 | 12.8 | 10.6 | Ac-IWIAQALR[R8]IGDEFN[S5]YYARR-NH2 (staple 9-16; SMILES CC[C@H](C)[C@H](NC(C)=O)C(=O)N[C@@H](Cc1c[nH]c2ccccc12)C(=O)N[C@H](C(=O)N[C@@H](C)C(=O)N[C@@H](CCC(N)=O)C(=O)N[C@@H](C)C(=O)N[C@@H](CC(C)C)C(=O)N[C@@H](CCCNC(=N)N)C(=O)N[C@]1(C)CCCCCCC=CCCC[C@@](C)(C(=O)N[C@@H](Cc2ccc(O)cc2)C(=O)N[C@@H](Cc2ccc(O)cc2)C(=O)N[C@@H](C)C(=O)N[C@@H](CCCNC(=N)N)C(=O)N[C@@H](CCCNC(=N)N)C(N)=O)NC(=O)[C@H](CC(N)=O)NC(=O)[C@H](Cc2ccccc2)NC(=O)[C@H](CCC(=O)O)NC(=O)[C@H](CC(=O)O)NC(=O)CNC(=O)[C@H]([C@@H](C)CC)NC1=O)[C@@H](C)CC) [Cross-linked peptide #15] |

From patent US20180273587A1 (AILERON THERAPEUTICS, published 2018)
